Here are results for 2 molecules from US20230049152A1 (Genentech, published 2023).

Experiment [1] concerns the target human CCR8 (human, UniProt P51685 1-355). Kind of experiment: cell-based or functional assay.
The target in experiment [2] is T1, T13A.
T1 construct: single alanine mutant of hCCR8; also called hCCR8 T13A
T1 receptor chain: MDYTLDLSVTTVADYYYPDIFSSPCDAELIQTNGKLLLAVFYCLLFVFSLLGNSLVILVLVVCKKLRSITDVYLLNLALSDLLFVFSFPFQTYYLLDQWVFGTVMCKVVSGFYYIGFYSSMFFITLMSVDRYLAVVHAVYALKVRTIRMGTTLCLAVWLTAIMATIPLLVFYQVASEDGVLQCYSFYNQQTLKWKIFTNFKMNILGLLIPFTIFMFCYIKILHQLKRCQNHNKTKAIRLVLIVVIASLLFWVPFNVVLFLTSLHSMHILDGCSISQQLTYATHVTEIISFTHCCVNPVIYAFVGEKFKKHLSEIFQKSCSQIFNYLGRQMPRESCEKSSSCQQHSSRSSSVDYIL
Kind of experiment: flow cytometry, HEK293 transfected with hCCR8 T13A with C-terminal FLAG; sheet prints [huCCR8]=0.02 ug/ml. The protocol: (§1) FIGS. 16A-16B depict the epitope maps for hu.Ab5.H13L1 (FIG. 16A) and hu.Ab4.H12L3 (FIG. 16B) mAbs.
(§2) To epitope map fucosylated hu.Ab5.H13L1, the binding to alanine point mutations in human CCR8 was analyzed by flow cytometry.

Experiment [3] deals with T2, hCCR8 Y3A (human, UniProt P51685 1-355).
T2 construct: alanine point mutant on transfected HEK 293 cells
Kind of experiment: flow cytometry, HEK293 transfected with hCCR8 Y3A with C-terminal FLAG. The protocol:
as §1, §2

Experiment [4] has as its target T3, T4A.
T3 construct: single alanine mutant of hCCR8; also called hCCR8 T4A
T3 receptor chain: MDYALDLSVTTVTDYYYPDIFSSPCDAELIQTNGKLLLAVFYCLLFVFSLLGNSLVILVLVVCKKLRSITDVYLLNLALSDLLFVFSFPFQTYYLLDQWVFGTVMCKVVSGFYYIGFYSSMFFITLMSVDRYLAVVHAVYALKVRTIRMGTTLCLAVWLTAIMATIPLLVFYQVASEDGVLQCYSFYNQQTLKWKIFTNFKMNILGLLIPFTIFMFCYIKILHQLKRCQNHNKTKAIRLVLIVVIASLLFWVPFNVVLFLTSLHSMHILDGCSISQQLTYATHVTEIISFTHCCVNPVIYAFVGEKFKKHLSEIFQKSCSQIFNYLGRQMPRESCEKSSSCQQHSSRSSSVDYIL
Kind of experiment: flow cytometry, HEK293 transfected with hCCR8 T4A with C-terminal FLAG; sheet prints [huCCR8]=0.02 ug/ml. The procedure:
as §1, §2

Experiment [5] deals with T4, S23A.
T4 construct: single alanine mutant of hCCR8; also called hCCR8 S23A
T4 receptor chain: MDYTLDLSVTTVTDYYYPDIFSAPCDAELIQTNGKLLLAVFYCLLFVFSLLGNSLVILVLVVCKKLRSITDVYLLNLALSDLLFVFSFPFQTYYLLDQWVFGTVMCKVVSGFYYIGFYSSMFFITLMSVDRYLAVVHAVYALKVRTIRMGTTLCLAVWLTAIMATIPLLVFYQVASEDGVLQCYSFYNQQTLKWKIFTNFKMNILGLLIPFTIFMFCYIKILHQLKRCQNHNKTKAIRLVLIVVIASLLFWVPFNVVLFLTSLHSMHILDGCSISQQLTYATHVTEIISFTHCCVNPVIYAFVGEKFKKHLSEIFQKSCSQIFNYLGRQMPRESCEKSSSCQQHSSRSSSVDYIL
Kind of experiment: flow cytometry, HEK293 transfected with hCCR8 S23A with C-terminal FLAG; sheet prints [huCCR8]=0.02 ug/ml. The protocol: as §1, §2

For experiment [6], the target named is T5, hCCR8 D2A (human, UniProt P51685 1-355).
T5 construct: alanine point mutant on transfected HEK 293 cells
Kind of experiment: flow cytometry, HEK293 transfected with hCCR8 D2A with C-terminal FLAG.

Experiment [7] concerns the target T6, P18A.
T6 construct: single alanine mutant of hCCR8; also called hCCR8 P18A
T6 receptor chain: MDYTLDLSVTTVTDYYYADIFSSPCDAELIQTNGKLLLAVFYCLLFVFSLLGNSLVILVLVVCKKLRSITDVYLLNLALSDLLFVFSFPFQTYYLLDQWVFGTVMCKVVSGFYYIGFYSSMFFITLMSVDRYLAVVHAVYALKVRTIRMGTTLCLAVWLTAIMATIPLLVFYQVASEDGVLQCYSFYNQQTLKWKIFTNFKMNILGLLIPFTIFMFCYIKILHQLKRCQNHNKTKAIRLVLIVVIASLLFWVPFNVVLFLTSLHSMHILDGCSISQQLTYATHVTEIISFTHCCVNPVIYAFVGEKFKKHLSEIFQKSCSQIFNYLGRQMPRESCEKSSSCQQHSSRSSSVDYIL
Kind of experiment: flow cytometry, HEK293 transfected with hCCR8 P18A with C-terminal FLAG; sheet prints [huCCR8]=0.02 ug/ml.

In experiment [8] the target is T7, CCR8 with C-terminal FLAG.
T7 construct: expressed on transfected HEK293 cells; also called hCCR8 with a C-terminal FLAG tag
Kind of experiment: flow cytometry, HEK293 transfected with CCR8 with C-terminal FLAG.

Experiment [9] has as its target T8, S22A.
T8 construct: single alanine mutant of hCCR8; also called hCCR8 S22A
T8 receptor chain: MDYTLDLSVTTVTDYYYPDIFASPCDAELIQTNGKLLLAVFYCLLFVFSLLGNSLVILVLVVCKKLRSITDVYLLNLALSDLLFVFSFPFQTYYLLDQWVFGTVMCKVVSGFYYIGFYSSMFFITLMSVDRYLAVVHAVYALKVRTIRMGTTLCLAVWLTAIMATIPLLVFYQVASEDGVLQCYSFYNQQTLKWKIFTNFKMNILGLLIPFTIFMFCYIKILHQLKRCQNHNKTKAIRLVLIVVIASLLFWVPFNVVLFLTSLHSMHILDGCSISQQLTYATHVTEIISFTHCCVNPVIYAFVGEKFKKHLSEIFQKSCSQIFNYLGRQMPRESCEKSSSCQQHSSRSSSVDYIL
Kind of experiment: flow cytometry, HEK293 transfected with hCCR8 S22A with C-terminal FLAG; sheet prints [huCCR8]=0.02 ug/ml.

B1: hu.Ab4.H1L1 (antibody, human IgG1, kappa)
heavy: not shown
light: DYQMTQSPSSLSASVGDRVTITCQASQSISSYLSWYQQKPGKRPKLLIYKASTLASGVPSRFSGSGSGTDFTLTISSLQPEDFATYYCQQGYTSSNIDNIFGGGTKVEIKRTVAAPSVFIFPPSDEQLKSGTASVVCLLNNFYPREAKVQWKVDNALQSGNSQESVTEQDSKDSTYSLSSTLTLSKADYEKHKVYACEVTHQGLSSPVTKSFNRGEC
notes: also called hu.Ab4.H1Ll
B1: the “CCL1 blocking potency IC50, Ca2+ influx” value in experiment [1] worked out at 57.9 nM.

B2: hu.Ab5.H13L1 (antibody, human IgG1, kappa)
heavy: not shown
light: DIQVTQSPSSLSASVGDRVTITCQASENIANALAWYQQKPGKPPKFLIYGASNLASGVPSRFSGSGSGTDFTFTISSLQPEDIATYYCQQAYYGNSFVEGTFGGGTKVEIKRTVAAPSVFIFPPSDEQLKSGTASVVCLLNNFYPREAKVQWKVDNALQSGNSQESVTEQDSKDSTYSLSSTLTLSKADYEKHKVYACEVTHQGLSSPVTKSFNRGEC
notes: fucosylated human IgG1; also called Ab5 variant
Take B2: the binding result is recorded as “binds” in [2]; “no binding (tested: 0.02 ug/ml)” in experiment [3]; “binds” in experiment [4]; “binds” in [5]; “no binding (tested: 0.02 ug/ml)” in experiment [6]; “binds” in experiment [7]. Besides, the binding result in experiment [8] and in experiment [9] was “binds” in each case.
